Tests used:
crystal structure = biological target: the molecule itself; assay: crystal structure
[1] = biological target: T1, HSV-1 UL31 full length (1-306) with R229L (SUP_UL31) (herpes simplex virus 1 (HSV-1), UniProt P10215 1-306, R229L); assay: cryo-EM structure
T1 sequence: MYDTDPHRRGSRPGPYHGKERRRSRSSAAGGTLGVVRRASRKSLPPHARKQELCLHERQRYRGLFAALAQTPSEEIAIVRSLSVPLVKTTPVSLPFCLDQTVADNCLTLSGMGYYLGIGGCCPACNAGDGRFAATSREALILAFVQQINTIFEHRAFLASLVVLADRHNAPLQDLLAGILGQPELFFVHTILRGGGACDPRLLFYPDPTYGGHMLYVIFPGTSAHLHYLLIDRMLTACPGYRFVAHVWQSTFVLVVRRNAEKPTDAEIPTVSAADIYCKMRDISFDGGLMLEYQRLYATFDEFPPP

cryo-EM structure = biological target: the molecule itself; assay: cryo-EM structure
[2] = biological target: T2, HSV-1 UL31 full length (1-306), wild type (herpes simplex virus 1 (HSV-1), UniProt P10215 1-306); assay: cryo-EM structure
T2 sequence: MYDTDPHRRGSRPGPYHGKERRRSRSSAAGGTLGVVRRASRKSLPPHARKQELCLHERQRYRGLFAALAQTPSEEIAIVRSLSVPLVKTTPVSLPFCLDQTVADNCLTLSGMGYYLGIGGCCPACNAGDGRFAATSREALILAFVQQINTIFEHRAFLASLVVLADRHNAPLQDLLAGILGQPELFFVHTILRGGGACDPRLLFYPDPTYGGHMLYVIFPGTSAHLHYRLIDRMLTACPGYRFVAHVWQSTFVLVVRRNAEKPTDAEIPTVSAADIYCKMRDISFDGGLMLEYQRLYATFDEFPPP

[3] = biological target: T2, HSV-1 UL31 full length (1-306), wild …; assay: SEC
[4] = biological target: T1, HSV-1 UL31 full length (1-306) with …; assay: SEC

B1: NEC185Δ50-SUP_(UL31) heterodimer (UL31 51-306 R229L with UL34 15-185) (complex)
chain 1: QELCLHERQRYRGLFAALAQTPSEEIAIVRSLSVPLVKTTPVSLPFCLDQTVADNCLTLSGMGYYLGIGGCCPACNAGDGRFAATSREALILAFVQQINTIFEHRAFLASLVVLADRHNAPLQDLLAGILGQPELFFVHTILRGGGACDPRLLFYPDPTYGGHMLYVIFPGTSAHLHYLLIDRMLTACPGYRFVAHVWQSTFVLVVRRNAEKPTDAEIPTVSAADIYCKMRDISFDGGLMLEYQRLYATFDEFPPP
chain 2: AFEGLVQRIRLIVPSTLRGGDGEAGPYSPSSLPSRCAFQFHGHDGSDESFPIEYVLRLMNDWAEVPCNPYLRIQNTGVSVLFQGFFHRPHNAPGGAITPERTNVILGSTETTGLSLGDLDTIKGRLGLDARPMMASMWISCFVRMPRVQLAFRFMGPEDAGRTRRILCRAA
For B1, the “stoichiometry N” value (crystal structure) was 6.

B2: HSV-1 UL31 residues 51-306 with R229L (SUP_UL31), crystallization construct (domain or fragment)
chain: QELCLHERQRYRGLFAALAQTPSEEIAIVRSLSVPLVKTTPVSLPFCLDQTVADNCLTLSGMGYYLGIGGCCPACNAGDGRFAATSREALILAFVQQINTIFEHRAFLASLVVLADRHNAPLQDLLAGILGQPELFFVHTILRGGGACDPRLLFYPDPTYGGHMLYVIFPGTSAHLHYLLIDRMLTACPGYRFVAHVWQSTFVLVVRRNAEKPTDAEIPTVSAADIYCKMRDISFDGGLMLEYQRLYATFDEFPPP
B2: binds (crystal structure).

B3: NEC185Δ50-DN_(UL34)/SUP_(UL31) heterodimer (UL31 51-306 R229L with UL34 15-185 D35A/E37A) (complex)
chain 1: QELCLHERQRYRGLFAALAQTPSEEIAIVRSLSVPLVKTTPVSLPFCLDQTVADNCLTLSGMGYYLGIGGCCPACNAGDGRFAATSREALILAFVQQINTIFEHRAFLASLVVLADRHNAPLQDLLAGILGQPELFFVHTILRGGGACDPRLLFYPDPTYGGHMLYVIFPGTSAHLHYLLIDRMLTACPGYRFVAHVWQSTFVLVVRRNAEKPTDAEIPTVSAADIYCKMRDISFDGGLMLEYQRLYATFDEFPPP
chain 2: AFEGLVQRIRLIVPSTLRGGAGAAGPYSPSSLPSRCAFQFHGHDGSDESFPIEYVLRLMNDWAEVPCNPYLRIQNTGVSVLFQGFFHRPHNAPGGAITPERTNVILGSTETTGLSLGDLDTIKGRLGLDARPMMASMWISCFVRMPRVQLAFRFMGPEDAGRTRRILCRAA
B3: binds (crystal structure).

B4: HSV-1 UL34 residues 1-220 with D35A/E37A (DN_UL34) (domain or fragment)
chain: MAGLGKPYTGHPGDAFEGLVQRIRLIVPSTLRGGAGAAGPYSPSSLPSRCAFQFHGHDGSDESFPIEYVLRLMNDWAEVPCNPYLRIQNTGVSVLFQGFFHRPHNAPGGAITPERTNVILGSTETTGLSLGDLDTIKGRLGLDARPMMASMWISCFVRMPRVQLAFRFMGPEDAGRTRRILCRAAEQAITRRRRTRRSREAYGAEAGLGVAGTGFRARGD
B4: binds [1].

B5: NEC220-SUP_(UL31) (UL31 1-306 R229L with UL34 1-220) (complex)
chain 1: MYDTDPHRRGSRPGPYHGKERRRSRSSAAGGTLGVVRRASRKSLPPHARKQELCLHERQRYRGLFAALAQTPSEEIAIVRSLSVPLVKTTPVSLPFCLDQTVADNCLTLSGMGYYLGIGGCCPACNAGDGRFAATSREALILAFVQQINTIFEHRAFLASLVVLADRHNAPLQDLLAGILGQPELFFVHTILRGGGACDPRLLFYPDPTYGGHMLYVIFPGTSAHLHYLLIDRMLTACPGYRFVAHVWQSTFVLVVRRNAEKPTDAEIPTVSAADIYCKMRDISFDGGLMLEYQRLYATFDEFPPP
chain 2: MAGLGKPYTGHPGDAFEGLVQRIRLIVPSTLRGGDGEAGPYSPSSLPSRCAFQFHGHDGSDESFPIEYVLRLMNDWAEVPCNPYLRIQNTGVSVLFQGFFHRPHNAPGGAITPERTNVILGSTETTGLSLGDLDTIKGRLGLDARPMMASMWISCFVRMPRVQLAFRFMGPEDAGRTRRILCRAAEQAITRRRRTRRSREAYGAEAGLGVAGTGFRARGD
B5: binds (cryo-EM structure).

B6: NEC220-DN_(UL34)/SUP_(UL31) (UL31 1-306 R229L with UL34 1-220 D35A/E37A) (complex)
chain 1: MYDTDPHRRGSRPGPYHGKERRRSRSSAAGGTLGVVRRASRKSLPPHARKQELCLHERQRYRGLFAALAQTPSEEIAIVRSLSVPLVKTTPVSLPFCLDQTVADNCLTLSGMGYYLGIGGCCPACNAGDGRFAATSREALILAFVQQINTIFEHRAFLASLVVLADRHNAPLQDLLAGILGQPELFFVHTILRGGGACDPRLLFYPDPTYGGHMLYVIFPGTSAHLHYLLIDRMLTACPGYRFVAHVWQSTFVLVVRRNAEKPTDAEIPTVSAADIYCKMRDISFDGGLMLEYQRLYATFDEFPPP
chain 2: MAGLGKPYTGHPGDAFEGLVQRIRLIVPSTLRGGAGAAGPYSPSSLPSRCAFQFHGHDGSDESFPIEYVLRLMNDWAEVPCNPYLRIQNTGVSVLFQGFFHRPHNAPGGAITPERTNVILGSTETTGLSLGDLDTIKGRLGLDARPMMASMWISCFVRMPRVQLAFRFMGPEDAGRTRRILCRAAEQAITRRRRTRRSREAYGAEAGLGVAGTGFRARGD
B6: binds (cryo-EM structure).

B7: NEC220, wild-type soluble HSV-1 nuclear egress complex (UL31 1-306 with UL34 1-220) (complex)
chain 1: MYDTDPHRRGSRPGPYHGKERRRSRSSAAGGTLGVVRRASRKSLPPHARKQELCLHERQRYRGLFAALAQTPSEEIAIVRSLSVPLVKTTPVSLPFCLDQTVADNCLTLSGMGYYLGIGGCCPACNAGDGRFAATSREALILAFVQQINTIFEHRAFLASLVVLADRHNAPLQDLLAGILGQPELFFVHTILRGGGACDPRLLFYPDPTYGGHMLYVIFPGTSAHLHYRLIDRMLTACPGYRFVAHVWQSTFVLVVRRNAEKPTDAEIPTVSAADIYCKMRDISFDGGLMLEYQRLYATFDEFPPP
chain 2: MAGLGKPYTGHPGDAFEGLVQRIRLIVPSTLRGGDGEAGPYSPSSLPSRCAFQFHGHDGSDESFPIEYVLRLMNDWAEVPCNPYLRIQNTGVSVLFQGFFHRPHNAPGGAITPERTNVILGSTETTGLSLGDLDTIKGRLGLDARPMMASMWISCFVRMPRVQLAFRFMGPEDAGRTRRILCRAAEQAITRRRRTRRSREAYGAEAGLGVAGTGFRARGD
B7: binds (cryo-EM structure).

B8: HSV-1 UL34 residues 1-220, wild type (domain or fragment)
chain: MAGLGKPYTGHPGDAFEGLVQRIRLIVPSTLRGGDGEAGPYSPSSLPSRCAFQFHGHDGSDESFPIEYVLRLMNDWAEVPCNPYLRIQNTGVSVLFQGFFHRPHNAPGGAITPERTNVILGSTETTGLSLGDLDTIKGRLGLDARPMMASMWISCFVRMPRVQLAFRFMGPEDAGRTRRILCRAAEQAITRRRRTRRSREAYGAEAGLGVAGTGFRARGD
B8: binds [2].

B9: HSV-1 UL34 residues 1-220 with R139A (domain or fragment)
chain: MAGLGKPYTGHPGDAFEGLVQRIRLIVPSTLRGGDGEAGPYSPSSLPSRCAFQFHGHDGSDESFPIEYVLRLMNDWAEVPCNPYLRIQNTGVSVLFQGFFHRPHNAPGGAITPERTNVILGSTETTGLSLGDLDTIKGALGLDARPMMASMWISCFVRMPRVQLAFRFMGPEDAGRTRRILCRAAEQAITRRRRTRRSREAYGAEAGLGVAGTGFRARGD
B9: binds [3].

B10: HSV-1 UL34 residues 1-220 with K137A/R139A (domain or fragment)
chain: MAGLGKPYTGHPGDAFEGLVQRIRLIVPSTLRGGDGEAGPYSPSSLPSRCAFQFHGHDGSDESFPIEYVLRLMNDWAEVPCNPYLRIQNTGVSVLFQGFFHRPHNAPGGAITPERTNVILGSTETTGLSLGDLDTIAGALGLDARPMMASMWISCFVRMPRVQLAFRFMGPEDAGRTRRILCRAAEQAITRRRRTRRSREAYGAEAGLGVAGTGFRARGD
B10: binds [3]; binds [4].

B11: HSV-1 UL34 residues 1-220 with K137A (domain or fragment)
chain: MAGLGKPYTGHPGDAFEGLVQRIRLIVPSTLRGGDGEAGPYSPSSLPSRCAFQFHGHDGSDESFPIEYVLRLMNDWAEVPCNPYLRIQNTGVSVLFQGFFHRPHNAPGGAITPERTNVILGSTETTGLSLGDLDTIAGRLGLDARPMMASMWISCFVRMPRVQLAFRFMGPEDAGRTRRILCRAAEQAITRRRRTRRSREAYGAEAGLGVAGTGFRARGD
B11: binds [3]; binds [4].

— publication doi:10.1101/2023.06.22.546118 (bioRxiv, 2023)
